Laboratory results from US20220289866A1 (University of California, published 2022).
Non-standard residues stand in square brackets, D forms with d. No end group written: not given here. *: point of attachment. ARS‑1620 (S-atropisomer) = O=C(CC*)N1CCN(c2ncnc3c(F)c(-c4c(O)cccc4F)c(Cl)cc23)CC1; Nle = CCCC[C@H](N)C(=O)O

What was measured:
[1] = biological target: T1, PolyG-1620 peptide (S-atropisomer) (not fully specified (N-terminus); printed as GGC(1620)GGGGGG-Nle); assay: BLI, biotinylated peptide
T1 construct: Control peptide, not of natural origin
T1 peptide: GGC(ARS‑1620 (S-atropisomer))GGGGGG[Nle]

[2] = biological target: T1, PolyG-1620 peptide (S-atropisomer); assay: BLI; 'Affinity (nM)'
[3] = biological target: T2, AHR2-1620 peptide; assay: BLI; 'Affinity (nM)'
T2 construct: Origin printed as 'off target'
T2 peptide: VVVEPQQQLC(ARS‑1620 (S-atropisomer))QK

| Binder | Kd [1] [nM] | Kd [2] [nM] | Kd [3] [nM] |
| --- | --- | --- | --- |
| P2F10 Fab (Fab, V domains shown, Fab from a human naive Fab-phage library) VH: EVQLVESGGGVVQPGRSLRLSCAASGFTFSNYAMHWVRQAPGKGLEWVALISYDGSITYYADSVKGRFTISRDNSKDTLYLQMNSLRPEDTTLYYCARERVPYDYYGMAVWGQGTTVTVSS VL: QSVLTQPPSVSAAPGQKVTISCSGSASNIGSNHVSWYQHVPGTAPQLLIYDDKQRPSGIPDRFSGSKSGTSAALAITGLQTGDEADYYCATWDNSLASAFFGGGTKLTVLS | 14.1 | – | – |
| P2G5 Fab (Fab, V domains shown, Fab from a human naive Fab-phage library; also called P1C1; P1C1(P2G5)) VH: QVQLLESGGGVVQPGRSLRLSCAASGFTFSSYAMHWVRQAPGKGLEWLASISYDGSNKFHADSVKGRFTISRDNSKSTLYLQMNSLRAEDTAVYYCVRERVPWDYDGMDVWGQGTTVTVSS VL: QSVVTQPPSVSAAPGQKVTVSCSGSNSNIGDNYVSWYQLLPGTAPKLLIYDNNKRPSGILDRFSGSKSGTSATLDITGLQTGDEADYYCGTWDSSLLTVVFGGGTKLTVLG | 85.4 | – | – |
| P2F11 Fab (Fab, V domains shown, Fab from a human naive Fab-phage library) VH: DVQLVESGGGVVQPGRSLRLSCAASGFTFSNYAMHWVRQAPGKGLEWVALISYDGSNKFHADSVKGRFTISRDNSKSTLYLQMNSLRAEDTAVYYCVRERVPWDYDGMDVWGQGTTVTVSS VL: QSVLTQPPSASGTPGQRVTISCSGGNSNIKSNTVSWYRQLPGATPKLLIYKTSQRPSGVPDRFSGSKSDTSATLDIAGLQTGDEADYYCGTWDNSLSSVVFGGGTRVTVLG | 21.7 | – | – |
| P1H6 Fab (Fab, V domains shown, Fab from a human naive Fab-phage library) VH: QVQLVESGGGVVQPGRSLRLSCAASGFTFSSYAMHWVRQAPGKGLEWLASISYDGSNKFHADSVKGRFTISRDNSKSTLYLQMNSLRAEDTAVYYCVRERVPWDYDGMDVWGQGTTVTVSS VL: QSVLTQPPSVSAAPGQKVTVSCSGSSSNIGNNYVSWYQLLPGTAPKLLIYDNNKRPSGILDRFSGSKSGTSATLDITGLQTGDEADYYCGTWDSSLINVVFGGGTKVTVLS | 24.6 | – | – |
| P1A4 Fab (Fab, V domains shown) VH: QVQLQESGGGLVQPGRSLRLSCAASGFTFSSYAMHWVRQAPGKGLEWVAVISYDGSNKYYADSVKGRFTISRDNSKNTLYLQMNSLRAEDTAVYYCARDYDWQYFDYWGQGTLVTVSS VL: QSVVTQPPSVSAAPGQEVTISCSGSSSNIGNNYVSWYQHLPGTAPKLLIYDSDKRPSGIPDRFSGSKSGTSATLGVTGLQTGDEADYYCGTWDSSLSAVMFGGGTKLTVLG | 39 | 40 | 51 |
